Experimental data reported in the supplement of paper PMC6757056.
± gives the standard deviation of the averaged measurements.

B1: library; a variant is named by its letters at N, in order (parent)
chain: GCUGUCACCGGUGCUUGGUACGUUAUAUUCAGCCGGUCUGAUGAGUCUNNNNNNAGACGAAACAGC

Tests used:
(6R,S)-folinic acid [1] = variants of: B1; assay: normalized RNA/DNA level without ligand (relative to sTRSVctl = 100) (log10 (% of sTRSVctl)); HEK293T overexpressing SLC46A1; higher = less ribozyme self-cleavage, higher mRNA level; conditions: without (6R,S)-folinic acid; ligand present: no
Procedure, shortened: (§1)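 Ribozyme switch library plasmids linked to reporters were introduced into HEK293T cells at 4 µg per 6-well well, with ligand, if any, added 1 h before. Total RNA was extracted with EDTA 72 h later, reverse-transcribed, amplified, barcoded and sequenced. RNA level was computed from RNA over DNA reads relative to a spiked-in non-cleaving sequence or the top sequences, then scaled and log-transformed. The top set was 25 sequences, values were ×100 and log10, and the cutoff was ≥100 DNA reads.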

(6R,S)-folinic acid [2] = variants of: B1; assay: normalized RNA/DNA level with ligand (relative to sTRSVctl = 100) (log10 (% of sTRSVctl)); HEK293T overexpressing SLC46A1; ligand concentration (+) RNA-Seq: 6 mM; higher = less ribozyme self-cleavage, higher mRNA level; conditions: with (6R,S)-folinic acid; ligand present: yes
Procedure, shortened: as §1

Variant	normalized RNA/DNA level without ligand (log10) ((6R,S)-folinic acid [1])	normalized RNA/DNA level with ligand (log10) ((6R,S)-folinic acid [2])
GCUGUCACCGGUGCUUGGUACGUUAUAUUCAGCCGGUCUGAUGAGUCUAGUAUUAGACGAAACAGC [AGUAUU]	2 ± 0.011	2.032 ± 0.018
GCUGUCACCGGUGCUUGGUACGUUAUAUUCAGCCGGUCUGAUGAGUCUUGUCCUAGACGAAACAGC [UGUCCU]	2.03 ± 0.034	2.07 ± 0.026
GCUGUCACCGGUGCUUGGUACGUUAUAUUCAGCCGGUCUGAUGAGUCUUGUCCGAGACGAAACAGC [UGUCCG]	1.86 ± 0.022	1.99 ± 0.033
GCUGUCACCGGUGCUUGGUACGUUAUAUUCAGCCGGUCUGAUGAGUCUUGUCCCAGACGAAACAGC [UGUCCC]	2.06 ± 0.024	2.033 ± 0.017
GCUGUCACCGGUGCUUGGUACGUUAUAUUCAGCCGGUCUGAUGAGUCUGGUCCGAGACGAAACAGC [GGUCCG]	2.04 ± 0.018	2.03 ± 0.03
GCUGUCACCGGUGCUUGGUACGUUAUAUUCAGCCGGUCUGAUGAGUCUGGUCCCAGACGAAACAGC [GGUCCC]	2.043 ± 0.016	2.01 ± 0.027
GCUGUCACCGGUGCUUGGUACGUUAUAUUCAGCCGGUCUGAUGAGUCUGGUCCUAGACGAAACAGC [GGUCCU]	2.09 ± 0.0075	2.09 ± 0.062
GCUGUCACCGGUGCUUGGUACGUUAUAUUCAGCCGGUCUGAUGAGUCUCGUCGGAGACGAAACAGC [CGUCGG]	2.01 ± 0.026	2.08 ± 0.049
GCUGUCACCGGUGCUUGGUACGUUAUAUUCAGCCGGUCUGAUGAGUCUCGUCGAAGACGAAACAGC [CGUCGA]	2.012 ± 0.0023	2.019 ± 0.019
GCUGUCACCGGUGCUUGGUACGUUAUAUUCAGCCGGUCUGAUGAGUCUCGUCGCAGACGAAACAGC [CGUCGC]	2.06 ± 0.037	2 ± 0.092
GCUGUCACCGGUGCUUGGUACGUUAUAUUCAGCCGGUCUGAUGAGUCUCGUCGUAGACGAAACAGC [CGUCGU]	2.04 ± 0.032	2 ± 0.03
GCUGUCACCGGUGCUUGGUACGUUAUAUUCAGCCGGUCUGAUGAGUCUUGUCAGAGACGAAACAGC [UGUCAG]	1.771 ± 0.011	2 ± 0.026
GCUGUCACCGGUGCUUGGUACGUUAUAUUCAGCCGGUCUGAUGAGUCUUGUCAUAGACGAAACAGC [UGUCAU]	1.955 ± 0.0075	2 ± 0.034
GCUGUCACCGGUGCUUGGUACGUUAUAUUCAGCCGGUCUGAUGAGUCUUGUCACAGACGAAACAGC [UGUCAC]	2.03 ± 0.015	2.01 ± 0.021
GCUGUCACCGGUGCUUGGUACGUUAUAUUCAGCCGGUCUGAUGAGUCUUGUCAAAGACGAAACAGC [UGUCAA]	1.968 ± 0.018	2.002 ± 0.014
GCUGUCACCGGUGCUUGGUACGUUAUAUUCAGCCGGUCUGAUGAGUCUCGUCCCAGACGAAACAGC [CGUCCC]	2.003 ± 0.0083	1.95 ± 0.037
GCUGUCACCGGUGCUUGGUACGUUAUAUUCAGCCGGUCUGAUGAGUCUCGUCCGAGACGAAACAGC [CGUCCG]	2.04 ± 0.026	2.037 ± 0.015
GCUGUCACCGGUGCUUGGUACGUUAUAUUCAGCCGGUCUGAUGAGUCUCGUCCUAGACGAAACAGC [CGUCCU]	2.11 ± 0.011	2.06 ± 0.031
GCUGUCACCGGUGCUUGGUACGUUAUAUUCAGCCGGUCUGAUGAGUCUCGUCCAAGACGAAACAGC [CGUCCA]	2.0366 ± 0.0014	2.02 ± 0.035
GCUGUCACCGGUGCUUGGUACGUUAUAUUCAGCCGGUCUGAUGAGUCUUGUCGCAGACGAAACAGC [UGUCGC]	1.966 ± 0.0063	2.024 ± 0.0019
GCUGUCACCGGUGCUUGGUACGUUAUAUUCAGCCGGUCUGAUGAGUCUUGUCGAAGACGAAACAGC [UGUCGA]	1.904 ± 0.0056	1.994 ± 0.013

Variant	normalized RNA/DNA level without ligand (log10) ((6R,S)-folinic acid [1])	normalized RNA/DNA level with ligand (log10) ((6R,S)-folinic acid [2])
GCUGUCACCGGUGCUUGGUACGUUAUAUUCAGCCGGUCUGAUGAGUCUCGUCAUAGACGAAACAGC [CGUCAU]	2.01 ± 0.047	2 ± 0.021
GCUGUCACCGGUGCUUGGUACGUUAUAUUCAGCCGGUCUGAUGAGUCUCGUCAGAGACGAAACAGC [CGUCAG]	2.001 ± 0.013	2.057 ± 0.013
GCUGUCACCGGUGCUUGGUACGUUAUAUUCAGCCGGUCUGAUGAGUCUCGUCAAAGACGAAACAGC [CGUCAA]	1.98 ± 0.022	1.974 ± 0.018
GCUGUCACCGGUGCUUGGUACGUUAUAUUCAGCCGGUCUGAUGAGUCUCGUCACAGACGAAACAGC [CGUCAC]	2.032 ± 0.0083	1.99 ± 0.049
GCUGUCACCGGUGCUUGGUACGUUAUAUUCAGCCGGUCUGAUGAGUCUAGUCCCAGACGAAACAGC [AGUCCC]	2.019 ± 0.0039	2.046 ± 0.0072
GCUGUCACCGGUGCUUGGUACGUUAUAUUCAGCCGGUCUGAUGAGUCUAGUCCAAGACGAAACAGC [AGUCCA]	2.022 ± 0.0089	2.0202 ± 0.002
GCUGUCACCGGUGCUUGGUACGUUAUAUUCAGCCGGUCUGAUGAGUCUAGUCCUAGACGAAACAGC [AGUCCU]	2.048 ± 0.0074	2.05 ± 0.029
GCUGUCACCGGUGCUUGGUACGUUAUAUUCAGCCGGUCUGAUGAGUCUAGUCCGAGACGAAACAGC [AGUCCG]	1.988 ± 0.0076	2 ± 0.025
GCUGUCACCGGUGCUUGGUACGUUAUAUUCAGCCGGUCUGAUGAGUCUAGUCGGAGACGAAACAGC [AGUCGG]	1.938 ± 0.0053	2 ± 0.053
GCUGUCACCGGUGCUUGGUACGUUAUAUUCAGCCGGUCUGAUGAGUCUAGUCGCAGACGAAACAGC [AGUCGC]	2.012 ± 0.015	1.98 ± 0.031
GCUGUCACCGGUGCUUGGUACGUUAUAUUCAGCCGGUCUGAUGAGUCUAGUCACAGACGAAACAGC [AGUCAC]	2.02 ± 0.024	2.02 ± 0.026
GCUGUCACCGGUGCUUGGUACGUUAUAUUCAGCCGGUCUGAUGAGUCUAGUCAGAGACGAAACAGC [AGUCAG]	1.975 ± 0.016	2.02 ± 0.042
GCUGUCACCGGUGCUUGGUACGUUAUAUUCAGCCGGUCUGAUGAGUCUAGUCAUAGACGAAACAGC [AGUCAU]	1.998 ± 0.0079	2.0062 ± 1.5e-05
GCUGUCACCGGUGCUUGGUACGUUAUAUUCAGCCGGUCUGAUGAGUCUGGUCGGAGACGAAACAGC [GGUCGG]	2.053 ± 0.02	2.07 ± 0.062
GCUGUCACCGGUGCUUGGUACGUUAUAUUCAGCCGGUCUGAUGAGUCUGGUCGAAGACGAAACAGC [GGUCGA]	2.0344 ± 0.00085	2.01 ± 0.026
GCUGUCACCGGUGCUUGGUACGUUAUAUUCAGCCGGUCUGAUGAGUCUGGUCGCAGACGAAACAGC [GGUCGC]	1.952 ± 0.012	2 ± 0.032
GCUGUCACCGGUGCUUGGUACGUUAUAUUCAGCCGGUCUGAUGAGUCUGGUCACAGACGAAACAGC [GGUCAC]	1.99 ± 0.031	2 ± 0.039
GCUGUCACCGGUGCUUGGUACGUUAUAUUCAGCCGGUCUGAUGAGUCUGGUCAGAGACGAAACAGC [GGUCAG]	2.039 ± 0.018	2.04 ± 0.035
GCUGUCACCGGUGCUUGGUACGUUAUAUUCAGCCGGUCUGAUGAGUCUGGUCAUAGACGAAACAGC [GGUCAU]	2.01 ± 0.025	2.01 ± 0.044
GCUGUCACCGGUGCUUGGUACGUUAUAUUCAGCCGGUCUGAUGAGUCUGGUCAAAGACGAAACAGC [GGUCAA]	1.99 ± 0.028	2 ± 0.024
